The results in this text go back to patent US20260015406A1 (University of Pennsylvania, published 2026).

What is called EC50 is the midpoint of the concentration-response curve. A low value points to an effect from little substance. In general, Kd refers to a measure of binding affinity in units of concentration.

Experiment [1] has as its target switchable CAR (sCAR) with anti-PNE single chain variable fragment. Description: flow cytometry, PNE-FITC titrated on sCAR T cells. Background: In flow cytometry, cells or beads pass a laser one at a time.
The target of experiment [2] is T1, human full length aminopeptidase N (APN, aka CD13) (human, UniProt P15144 2-967).
T1 construct: whole, on cells
Description: flow cytometry on patient-derived AML cells (AML2844).

In experiment [3] the target is T1, human full length aminopeptidase N …. Description: flow cytometry on THP-1 cells (endogenous CD13).
Experiment [4] deals with T2, human full length CDH17, also called cadherin 17 or liver-intestine cadherin (human, UniProt Q12864 23-832).
T2 sequence (looked up): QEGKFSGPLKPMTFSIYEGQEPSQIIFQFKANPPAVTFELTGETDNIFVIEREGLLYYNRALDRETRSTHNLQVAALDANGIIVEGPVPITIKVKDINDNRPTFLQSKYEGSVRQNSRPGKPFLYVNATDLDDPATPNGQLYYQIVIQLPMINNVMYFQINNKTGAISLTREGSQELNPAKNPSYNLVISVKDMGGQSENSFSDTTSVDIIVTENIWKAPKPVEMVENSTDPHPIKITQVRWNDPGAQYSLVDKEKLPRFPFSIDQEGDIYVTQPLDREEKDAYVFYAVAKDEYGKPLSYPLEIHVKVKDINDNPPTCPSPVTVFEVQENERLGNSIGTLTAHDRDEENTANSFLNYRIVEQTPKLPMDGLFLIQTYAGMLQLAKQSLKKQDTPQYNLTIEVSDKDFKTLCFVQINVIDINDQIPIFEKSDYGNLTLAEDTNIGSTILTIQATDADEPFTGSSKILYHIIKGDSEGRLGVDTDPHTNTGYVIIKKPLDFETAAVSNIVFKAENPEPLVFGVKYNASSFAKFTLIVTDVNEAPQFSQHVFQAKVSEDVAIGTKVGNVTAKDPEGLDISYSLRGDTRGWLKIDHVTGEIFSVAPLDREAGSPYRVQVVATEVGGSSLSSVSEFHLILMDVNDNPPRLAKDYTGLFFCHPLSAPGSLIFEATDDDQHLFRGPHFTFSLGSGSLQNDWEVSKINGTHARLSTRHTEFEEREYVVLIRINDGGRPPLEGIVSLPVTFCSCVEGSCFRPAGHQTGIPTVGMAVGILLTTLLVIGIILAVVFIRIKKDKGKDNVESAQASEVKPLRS
Description: cell-based or functional assay.

The target of experiment [5] is T2, human full length CDH17, also called …. Description: flow cytometry, VHH1-expressing phage on HEK293T cells transfected with membrane protein cDNAs. Here is the method:
(§1) Next, to identify the protein antigen of the isolated VHH1 nanobody, ˜3000 human cell membrane protein cDNAs were prepared and transfected into HEK293T cells individually, followed by flow cytometry analysis with the VHH1-expressing phage and FITC-labeled secondary antibody against phage M13 protein (FIG. 12A). […] Human or mouse CDH17 cDNA was transiently transfected into HEK293T cells, followed by flow cytometry analysis with the VHH1-expressing phage and FITC-labeled secondary antibody against phage M13 protein.

For the next experiment, the target named is T3, mouse CDH17 (mouse, UniProt Q9R100 26-827).
T3 construct: whole, on cells
T3 sequence (looked up): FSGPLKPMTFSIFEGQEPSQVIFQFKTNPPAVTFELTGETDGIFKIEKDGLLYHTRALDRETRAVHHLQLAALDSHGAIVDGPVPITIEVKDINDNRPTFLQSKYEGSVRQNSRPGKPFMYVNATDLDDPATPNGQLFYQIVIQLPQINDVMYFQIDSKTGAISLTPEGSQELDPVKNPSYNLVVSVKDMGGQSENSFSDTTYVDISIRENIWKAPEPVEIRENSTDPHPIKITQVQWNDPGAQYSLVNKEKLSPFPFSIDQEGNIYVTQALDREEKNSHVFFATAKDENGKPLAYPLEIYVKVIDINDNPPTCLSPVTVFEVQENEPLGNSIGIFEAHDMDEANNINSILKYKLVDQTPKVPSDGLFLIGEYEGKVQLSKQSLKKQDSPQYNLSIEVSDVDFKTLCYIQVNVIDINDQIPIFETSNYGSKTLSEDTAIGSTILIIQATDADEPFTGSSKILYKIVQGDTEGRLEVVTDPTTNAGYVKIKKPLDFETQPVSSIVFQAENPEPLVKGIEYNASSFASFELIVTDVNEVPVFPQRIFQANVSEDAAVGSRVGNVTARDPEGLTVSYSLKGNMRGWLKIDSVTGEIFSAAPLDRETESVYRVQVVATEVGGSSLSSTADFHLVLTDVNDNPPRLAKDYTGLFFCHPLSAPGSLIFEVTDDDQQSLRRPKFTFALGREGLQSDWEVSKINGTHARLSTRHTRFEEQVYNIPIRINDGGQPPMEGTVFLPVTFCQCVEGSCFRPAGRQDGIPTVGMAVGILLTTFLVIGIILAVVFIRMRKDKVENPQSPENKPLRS
Description: flow cytometry, VHH1-expressing phage on HEK293T cells transiently transfected with CDH17 cDNA. Here is the method:
as §1

T1 sequence (P15144 2-967): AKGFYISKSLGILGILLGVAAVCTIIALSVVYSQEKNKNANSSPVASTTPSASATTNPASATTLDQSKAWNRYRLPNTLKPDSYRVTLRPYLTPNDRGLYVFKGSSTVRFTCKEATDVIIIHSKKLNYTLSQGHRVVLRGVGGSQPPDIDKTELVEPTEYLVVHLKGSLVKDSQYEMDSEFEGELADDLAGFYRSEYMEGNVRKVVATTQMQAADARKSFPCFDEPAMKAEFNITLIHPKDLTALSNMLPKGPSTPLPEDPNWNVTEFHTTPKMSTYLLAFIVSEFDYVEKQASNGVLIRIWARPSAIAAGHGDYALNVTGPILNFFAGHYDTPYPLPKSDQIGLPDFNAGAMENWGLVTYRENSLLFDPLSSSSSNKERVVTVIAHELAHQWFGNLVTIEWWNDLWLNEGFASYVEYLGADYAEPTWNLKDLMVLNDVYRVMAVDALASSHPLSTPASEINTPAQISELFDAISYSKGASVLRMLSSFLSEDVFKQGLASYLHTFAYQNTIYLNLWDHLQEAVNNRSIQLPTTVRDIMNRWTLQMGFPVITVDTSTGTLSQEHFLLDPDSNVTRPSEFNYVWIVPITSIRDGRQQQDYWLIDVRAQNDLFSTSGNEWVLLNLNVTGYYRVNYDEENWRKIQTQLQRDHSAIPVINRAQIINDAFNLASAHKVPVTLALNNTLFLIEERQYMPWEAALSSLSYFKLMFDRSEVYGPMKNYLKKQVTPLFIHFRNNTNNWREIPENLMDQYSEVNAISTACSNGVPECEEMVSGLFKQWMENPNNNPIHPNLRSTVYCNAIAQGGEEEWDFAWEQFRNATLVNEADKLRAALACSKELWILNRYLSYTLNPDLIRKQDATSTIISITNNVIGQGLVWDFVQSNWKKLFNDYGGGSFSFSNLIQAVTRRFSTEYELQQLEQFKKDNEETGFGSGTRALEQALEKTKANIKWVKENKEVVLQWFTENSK

The molecule FITC-labeled PNE-peptide yielded a concentration for a half-maximal effect (EC50) in experiment [1] of 1 nM. This counts as single-digit nanomolar.

B1: Nb163 (VHH)
VHH: QVQLQESGGGLVQPGGSLRLSCVPSGFTFDGYLIGWFRQAPGSERKAVSCISVNGDRTNYADSVKGRFTISRDNAKNTVYLQMNSLRPNDTAIYYCATRRGNRLYNNNCPYFEYGTWGQGTQVTVSS
notes: also called VHH163; VH163
For B1, the binding result in experiment [2] is “binds”.

B2: Nb157-C-PNE (VHH)
VHH: QVQLQESGGGLVQPGGSLSLSCTASGFTFSSYSMAWVRQAPGKGPEWVSGIYPSDGKTRYADFVKGRFSISRDNAKNMLYLQMNNLEPEDTALYYCARGITGLGPRGQGTQVTVSS
notes: also called VHH157-C-PNE; Nb157 with C-terminal PNE; not shown: PNE, a fourteen amino acid peptide
Take B2: the Kd in experiment [3] is ~35 nM.

B3: Nb157-N-PNE (VHH)
VHH: QVQLQESGGGLVQPGGSLSLSCTASGFTFSSYSMAWVRQAPGKGPEWVSGIYPSDGKTRYADFVKGRFSISRDNAKNMLYLQMNNLEPEDTALYYCARGITGLGPRGQGTQVTVSS
notes: also called VHH157-N-PNE; Nb157 with N-terminal PNE; not shown: PNE, a fourteen amino acid peptide
For the molecule B3, the dissociation constant Kd in experiment [3] is ~90 nM.

B4: Nb157 (VHH)
VHH: QVQLQESGGGLVQPGGSLSLSCTASGFTFSSYSMAWVRQAPGKGPEWVSGIYPSDGKTRYADFVKGRFSISRDNAKNMLYLQMNNLEPEDTALYYCARGITGLGPRGQGTQVTVSS
notes: Llama nanobody from the THP-1-immunised library; also called VHH157; VH157
As to B4, the Kd in experiment [3] is ~35 nM.

B5: VLV-DM1 (VHH, not shown: small tags and cut ends)
VHH 1: QVQLQESGGGLVQPGGSTRLSCVSSRTFSYYDMGWFRQAPGKEREFVALLSWNGENAEYSDSVMGRFTVSRGNTQNSVNLQMNNLKPEDTGIYYCAVTHGGARSVRSWGQGTQVTVSS
VHH 2: QVQLQESGGGLVQPGGSTRLSCVSSRTFSYYDMGWFRQAPGKEREFVALLSWNGENAEYSDSVMGRFTVSRGNTQNSVNLQMNNLKPEDTGIYYCAVTHGGARSVRSWGQGTQVTVSS
modifications: Mertansine (DM1) is conjugated to the VLV protein; the residues, number of drugs and chemical linker are not stated. In reality one polypeptide: the two VHH1 units are joined by a peptide linker whose letters are not given.
As for B5, the “IC50, in vitro killing of BON cells (MTT assay)” value in experiment [4] was 1.2 nM.

B6: VHH1 nanobody (VHH)
VHH: QVQLQESGGGLVQPGGSTRLSCVSSRTFSYYDMGWFRQAPGKEREFVALLSWNGENAEYSDSVMGRFTVSRGNTQNSVNLQMNNLKPEDTGIYYCAVTHGGARSVRSWGQGTQVTVSS
notes: From a naive llama phage library panned on BON cells
As for B6, the binding result (in experiment [5]; with mouse CDH17) was “binds” in each case.
